The record followed here is the Human Domainome abundance scans (Beltran et al. 2025).

To fix the notation:
B1: Ankyrin-1, residues 1405 to 1484; numbered along this chain, P16157 (parent)
chain: MKMAVISEHLGLSWAELARELQFSVEDINRIRVENPNSLLEQSVALLNLWVIREGQNANMENLYTALQSIDRGEIVNMLE

± gives the uncertainty stated by the source.

In the series the parent is B1. Put plainly: abundance fitness (aPCA) (normalised: wild type 0, dead -1); higher = more abundant; growth selection in yeast, the domain comes from the species named. The note with it: Homo sapiens.
Consider E80R, for which the abundance fitness is -0.17 ± 0.13.

With E80H, the abundance fitness is -0.06 ± 0.11.

For the variant V76G, the abundance fitness is -0.566 ± 0.069.

With N29A, the abundance fitness is -0.062 ± 0.052.

With N29T, the abundance fitness is -0.005 ± 0.082.

N57W: the abundance fitness was -0.175 ± 0.08.

As to N37A, the abundance fitness is -0.025 ± 0.093.

Regarding Y64V, the abundance fitness is -0.225 ± 0.061.

On to Y64W, for which the abundance fitness was -0.531 ± 0.084.

Consider L21M, for which the abundance fitness came out at 0.048 ± 0.12.

Consider L21F, for which the abundance fitness is -0.69 ± 0.29.

As for A66Q, the abundance fitness is -0.402 ± 0.21.

As to I75W, the abundance fitness was -0.663 ± 0.17.

Take Q68K: the abundance fitness stood at 0.169 ± 0.14.

Turning to Q68W, the abundance fitness was -0.146 ± 0.071.

With Q68I, the abundance fitness is -0.097 ± 0.12.

With L39Y, the abundance fitness worked out at 0.004 ± 0.13.

With L39F, the abundance fitness was -0.068 ± 0.14.

Turning to R30A, the abundance fitness was -0.215 ± 0.059.

In the case of R30E, the abundance fitness was -0.292 ± 0.13.

With R30K, the abundance fitness is 0.054 ± 0.12.

Turning to E41V, the abundance fitness is -0.467 ± 0.067.

For the variant E41H, the abundance fitness is -0.161 ± 0.14.

With E41C, the abundance fitness was -0.173 ± 0.075.

Regarding L40Q, the abundance fitness was -0.029 ± 0.17.

Turning to E26A, the abundance fitness was -0.2 ± 0.066.

As for E26S, the abundance fitness is -0.071 ± 0.055.

Turning to M3S, the abundance fitness was -0.365 ± 0.066.

As for E8N, the abundance fitness is -0.06 ± 0.16.

In the case of L49H, the abundance fitness is -0.239 ± 0.12.

For the variant L49F, the abundance fitness is -0.19 ± 0.091.

For L49I, the abundance fitness was -0.058 ± 0.1.

Consider L49W, for which the abundance fitness was -0.359 ± 0.074.

For the variant L49D, the abundance fitness is -0.196 ± 0.087.

Regarding E74I, the abundance fitness was -0.105 ± 0.19.

As to E74V, the abundance fitness was -0.839 ± 0.15.

Turning to G73E, the abundance fitness is -0.24 ± 0.064.

On to G73I, for which the abundance fitness is -0.486 ± 0.13.

Take N35Q: the abundance fitness is -0.247 ± 0.16.

Turning to N35S, the abundance fitness is -0.017 ± 0.12.

For the variant N35F, the abundance fitness was -0.219 ± 0.2.

Consider N35V, for which the abundance fitness was -0.171 ± 0.12.

On to N35P, for which the abundance fitness is -0.866 ± 0.23.

As for G11D, the abundance fitness is -0.171 ± 0.23.

G11F: the abundance fitness was -0.581 ± 0.16.

Consider E34K, for which the abundance fitness is -0.522 ± 0.41.

Turning to E34G, the abundance fitness was -0.166 ± 0.074.

Regarding E34C, the abundance fitness is -0.257 ± 0.19.

Turning to E34V, the abundance fitness is -0.308 ± 0.099.

Consider G55P, for which the abundance fitness is -0.69 ± 0.41.

In the case of G55D, the abundance fitness was -0.1 ± 0.1.

Take L17D: the abundance fitness is -1.01 ± 0.27.

As to A15G, the abundance fitness was -0.108 ± 0.037.

Consider D27V, for which the abundance fitness was -0.089 ± 0.058.

Take A4W: the abundance fitness is -0.397 ± 0.15.

For M60P, the abundance fitness is -0.207 ± 0.18.

Take M60R: the abundance fitness was -0.704 ± 0.15.

Turning to K2E, the abundance fitness was 0.095 ± 0.1.

Take K2Q: the abundance fitness was -0.155 ± 0.11.

In the case of K2S, the abundance fitness was -0.4 ± 0.087.

Regarding K2D, the abundance fitness is -0.542 ± 0.14.

As for K2L, the abundance fitness was -0.258 ± 0.037.

Turning to K2C, the abundance fitness was -0.284 ± 0.14.

For the variant K2R, the abundance fitness is -0.045 ± 0.067.

For the variant T65Q, the abundance fitness is 0.016 ± 0.043.

On to T65D, for which the abundance fitness came to 0.009 ± 0.065.

T65G: the abundance fitness is -0.045 ± 0.043.

Regarding R32V, the abundance fitness was -0.041 ± 0.059.

Regarding V33D, the abundance fitness was -0.031 ± 0.14.

As for V33N, the abundance fitness is -0.103 ± 0.28.

With V33H, the abundance fitness is -0.043 ± 0.049.

Consider V33G, for which the abundance fitness is -0.041 ± 0.04.

Take V44R: the abundance fitness is 0.181 ± 0.051.

On to V44G, for which the abundance fitness came to 0.046 ± 0.039.

Take V44A: the abundance fitness worked out at 0.148 ± 0.059.

Consider V44I, for which the abundance fitness was -0.217 ± 0.12.

As for R53P, the abundance fitness is -0.983 ± 0.21.

For the variant R53D, the abundance fitness was -0.613 ± 0.15.

Regarding L46Y, the abundance fitness is -0.614 ± 0.39.

Turning to L46P, the abundance fitness is -0.891 ± 0.23.

Take L46Q: the abundance fitness is -1.13 ± 0.41.

Turning to N59V, the abundance fitness was -0.078 ± 0.046.

Take N59C: the abundance fitness is -0.222 ± 0.12.

In the case of N59F, the abundance fitness is -0.388 ± 0.17.

As to N77R, the abundance fitness was 0.08 ± 0.065.

Take N77V: the abundance fitness was -0.078 ± 0.11.

With N77A, the abundance fitness came to 0.084 ± 0.061.

E54T: the abundance fitness was -0.455 ± 0.098.

Turning to E54V, the abundance fitness was -0.412 ± 0.061.

As for E54R, the abundance fitness was -0.456 ± 0.065.

Take I70H: the abundance fitness is -0.404 ± 0.45.

I70W: the abundance fitness is -0.99 ± 0.28.

For the variant I70S, the abundance fitness is -0.604 ± 0.13.

For I70V, the abundance fitness was -0.193 ± 0.054.

Consider I70F, for which the abundance fitness was -0.693 ± 0.2.

Turning to I70T, the abundance fitness is -0.651 ± 0.14.

On to S24R, for which the abundance fitness is -0.25 ± 0.051.

On to S24E, for which the abundance fitness is -0.067 ± 0.069.

As for S24Y, the abundance fitness is -0.856 ± 0.26.

In the case of S24P, the abundance fitness was -0.209 ± 0.056.

For the variant I31L, the abundance fitness is -0.149 ± 0.059.

As to I31T, the abundance fitness was -0.774 ± 0.3.

Turning to I31S, the abundance fitness was -0.938 ± 0.18.

On to I31Q, for which the abundance fitness was -0.712 ± 0.11.

As to M78I, the abundance fitness amounted to 0.041 ± 0.12.

With M78H, the abundance fitness is -0.158 ± 0.15.

In the case of S38R, the abundance fitness was -0.478 ± 0.08.

With I28F, the abundance fitness was -0.738 ± 0.22.

Consider I28L, for which the abundance fitness was -0.529 ± 0.083.

Regarding L63N, the abundance fitness was -0.806 ± 0.36.

Take L67F: the abundance fitness was -0.788 ± 0.23.

As to R72Q, the abundance fitness is -0.275 ± 0.1.

With H9P, the abundance fitness is -0.666 ± 0.18.

As to H9A, the abundance fitness was -0.429 ± 0.14.

Regarding N48M, the abundance fitness was -0.575 ± 0.11.

Take N48D: the abundance fitness is 0.154 ± 0.081.

As to N48P, the abundance fitness was -1.07 ± 0.34.

For the variant L79F, the abundance fitness is -0.331 ± 0.14.

For the variant L79S, the abundance fitness worked out at 0.014 ± 0.052.

In the case of L79Q, the abundance fitness was -0.115 ± 0.11.

Turning to S69K, the abundance fitness is -0.035 ± 0.099.

Consider S69E, for which the abundance fitness is -0.042 ± 0.068.

As for E20G, the abundance fitness was -0.49 ± 0.068.

Regarding E20M, the abundance fitness was -0.077 ± 0.12.

As to N62A, the abundance fitness was -0.045 ± 0.079.

N62T: the abundance fitness amounted to 0.211 ± 0.1.

Turning to N62F, the abundance fitness is 0.034 ± 0.13.

For the variant N62I, the abundance fitness came to 0.089 ± 0.089.

As for A18C, the abundance fitness was -1.05 ± 0.29.

A18D: the abundance fitness is -0.96 ± 0.23.

In the case of A18L, the abundance fitness is -0.535 ± 0.078.

As to W50Y, the abundance fitness was 0.015 ± 0.17.

Consider W50G, for which the abundance fitness is -1.07 ± 0.16.

For V51A, the abundance fitness was -0.072 ± 0.079.

For the variant V51N, the abundance fitness is -0.159 ± 0.12.

In the case of V25C, the abundance fitness is -0.161 ± 0.083.

As to R19F, the abundance fitness was found to be 0.067 ± 0.057.

For the variant R19L, the abundance fitness was 0.025 ± 0.053.

Take V5R: the abundance fitness was -0.521 ± 0.062.

As to V5C, the abundance fitness is -0.18 ± 0.087.

V5A: the abundance fitness was -0.231 ± 0.06.

For the variant L10N, the abundance fitness was -0.69 ± 0.28.

For the variant Q42R, the abundance fitness is -0.152 ± 0.068.

Turning to Q42G, the abundance fitness was -0.923 ± 0.12.

On to P36A, for which the abundance fitness was 0.016 ± 0.071.

Take D71M: the abundance fitness was -0.127 ± 0.14.

On to D71P, for which the abundance fitness was -0.437 ± 0.11.

As to E16M, the abundance fitness was -0.207 ± 0.1.

As for E16R, the abundance fitness is -0.085 ± 0.056.

Regarding E16D, the abundance fitness came out at 0.068 ± 0.089.

On to E16Q, for which the abundance fitness is -0.081 ± 0.11.

Turning to E16I, the abundance fitness was -0.384 ± 0.13.

E16W: the abundance fitness is -0.593 ± 0.15.

In the case of S13C, the abundance fitness is -0.577 ± 0.12.

For Q22Y, the abundance fitness was -0.187 ± 0.15.

Regarding Q22P, the abundance fitness was -0.522 ± 0.14.

For S43W, the abundance fitness is -0.805 ± 0.17.

In the case of S7A, the abundance fitness is 0.109 ± 0.055.

For S7L, the abundance fitness was -0.808 ± 0.1.

In the case of L47W, the abundance fitness is -0.673 ± 0.12.

For the variant L47G, the abundance fitness is -0.521 ± 0.066.

As for L47A, the abundance fitness is -0.905 ± 0.15.

In the case of L47Y, the abundance fitness is -0.997 ± 0.34.

As for A58T, the abundance fitness was -0.195 ± 0.14.

A58N: the abundance fitness was determined as 0.092 ± 0.19.

For W14E, the abundance fitness was -0.788 ± 0.36.

On to W14M, for which the abundance fitness was -0.454 ± 0.13.
